Experimental data from patent publication US20180127493A1 (ESBATECH AN ALCON BIOMEDICAL RESEARCH UNIT, published 2018).

Legend:
[1] = molecular target: T1, recombinant human VEGF165 (PeproTech EC Ltd.) (human, UniProt P15692-4 27-191); assay: SPR, BIAcore T100, hVEGF165 amine-coupled on CM4 chip, scFv as analyte
T1 construct: Amine-coupled to a CM4 chip; also called hVEGF165
Method: The Biacore-binding ability of scFvs was tested and the binding affinity was measured using the exemplary surface plasmon resonance method with BIAcore™-T100. […] For the surface plasmon resonance experiment, carboxymethylated dextran biosensor chips (CM4, GE Healthcare) were activated with N-ethyl-N′-(3-dimethylaminopropyl) carbodiimide hydrochloride and N-hydroxysuccinimide according to the supplier's instructions. […] The 4th flow cell of each chip was treated similarly except no proteins were immobilized prior to blocking, and the flow cell was used as in-line reference. […] The apparent dissociation rate constant (kd), the apparent association rate constant (kₐ) and the apparent dissociation equilibrium constant (KD) were calculated using one-to-one Langmuir binding model with BIAcore T100 evaluation Software version 1.1.

[2] = molecular target: VEGF (as used in the VEGFR competition ELISA); assay: competition ELISA, VEGF binding to hVEGFR1; ratio to reference Luc
Chain of VEGF (as used in the VEGFR competition ELISA) (P15692 whole entry): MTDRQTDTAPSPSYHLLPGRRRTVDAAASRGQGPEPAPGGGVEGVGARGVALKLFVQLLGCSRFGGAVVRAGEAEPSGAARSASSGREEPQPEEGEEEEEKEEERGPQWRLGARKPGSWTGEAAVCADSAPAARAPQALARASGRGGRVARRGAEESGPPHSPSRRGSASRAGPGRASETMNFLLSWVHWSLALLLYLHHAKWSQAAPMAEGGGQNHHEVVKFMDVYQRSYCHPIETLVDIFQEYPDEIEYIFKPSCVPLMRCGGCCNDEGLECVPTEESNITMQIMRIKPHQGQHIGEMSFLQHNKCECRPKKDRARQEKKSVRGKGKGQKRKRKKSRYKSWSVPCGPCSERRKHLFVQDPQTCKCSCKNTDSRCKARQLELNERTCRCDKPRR

T1 sequence (P15692 other isoform, or with tags, fused parts or gaps limits assumed, form in doubt): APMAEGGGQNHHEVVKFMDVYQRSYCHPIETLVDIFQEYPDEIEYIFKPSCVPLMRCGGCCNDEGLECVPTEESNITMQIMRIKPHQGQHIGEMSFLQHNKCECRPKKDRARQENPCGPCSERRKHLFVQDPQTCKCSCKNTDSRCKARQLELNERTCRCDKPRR

B1: 534-min C-His (scFv, not shown: small tags and cut ends)
scFv: EIVMTQSPSTLSASVGDRVIITCQASQSINWLSWYQQKPGKAPKLLIYKESTLASGVPSRFSGSGSGAEFTLTISSLQPDDFATYYCQNNYDSGNNGFPFGQGTKLTVLGGGGGSGGGGSGGGGSGGGGSEVQLVESGGGLVQPGGSLRLSCAASGFSLSYYYMSWVRQAPGKGLEWVSIIGPGDYTDYASWAKGRFTISRDNSKNTLYLQMNSLRAEDTAVYYCAKGDDNSGWGEDIWGQGTLVTVSS
notes: Min graft with C-His in its name; also called 807
Kd [1]: 34.1 nM | koff [1]: 0.00921 s⁻¹ | kon [1]: 271000 M⁻¹ s⁻¹

B2: 578-min (scFv)
scFv: EIVMTQSPSTLSASVGDRVIITCQASEIIHSWLAWYQQKPGKAPKLLIYLASTLASGVPSRFSGSGSGAEFTLTISSLQPDDFATYYCQNVYLASTNGANFGQGTKLTVLGGGGGSGGGGSGGGGSGGGGSEVQLVESGGGLVQPGGSLRLSCAASGFSLTDYYYMTWVRQAPGKGLEWVSFIDPDDDPYYATWAKGRFTISRDNSKNTLYLQMNSLRAEDTAVYYCAKGDHNSGWGLDIWGQGTLVTVSS
notes: NH2-VL-linker-VH-COOH; Min graft on FW1.4; also called 820
Rel. activity hVEGR1 comp. ELISA (EC50Luc [nM]/EC50test [nM]) [2]: 4.8 ratio

B3: 567-min (scFv)
chain: EIVMTQSPSTLSASVGDRVIITCQADQSIYIWLSWYQQKPGKAPKLLIYKASTLESGVPSRFSGSGSGAEFTLTISSLQPDDFATYYCQNNAHYSTNGGTFGQGTKLTVLGGGGGSGGGGSGGGGSGGGGSEVQLVESGGGLVQPGGSLRLSCAASGFSLSDYYMCWVRQAPGKGLEWVSCLDYFGSTDDASWAKGRFTISRDNSKNTLYLQMNSLRAEDTAVYYCAKTDDSRGWGLNIWGQGTLVTVSS
Rel. activity hVEGR1 comp. ELISA (EC50Luc [nM]/EC50test [nM]) [2]: 57 ratio

B4: 511-min (scFv)
scFv: EIVMTQSPSTLSASVGDRVIITCQASQSINIWLSWYQQKPGKAPKLLIYRASTLASGVPSRFSGSGSGAEFTLTISSLQPDDFATYYCQANYAYSAGYGAAFGQGTKLTVLGGGGGSGGGGSGGGGSGGGGSEVQLVESGGGLVQPGGSLRLSCAASGFSLNTYYMNWVRQAPGKGLEWVSIIAPDDTTYYASWAKSRFTISRDNSKNTLYLQMNSLRAEDTAVYYCAKSGDTTAWGADIWGQGTLVTVSS
notes: NH2-VL-linker-VH-COOH; Min graft on FW1.4; also called 801
Rel. activity hVEGR1 comp. ELISA (EC50Luc [nM]/EC50test [nM]) [2]: 0.7 ratio | Kd [1]: 2.53 nM | koff [1]: 0.00128 s⁻¹ | kon [1]: 505000 M⁻¹ s⁻¹

B5: 509-maxII (scFv)
chain: EIVMTQSPSTLSASVGDRVIITCQASQNIRIWLSWYQQKPGKAPKLLIYKASTLESGVPSRFSGSGSGTEFTLTISSLQPDDFATYYCQNNAHYSTNGGTFGQGTKLTVLGGGGGSGGGGSGGGGSGGGGSEVQLVESGGGLVQPGGSLRLSCTASGFSLSSYYMSWVRQAPGKGLEWVGILDYVGDTDYASWAKGRFTISKDASKNTVYLQMNSLRAEDTAVYYCARTDDSRGWGLNIWGQGTLVTVSS
Rel. activity hVEGR1 comp. ELISA (EC50Luc [nM]/EC50test [nM]) [2]: 0.09 ratio | Kd [1]: 3.37 nM | koff [1]: 0.00282 s⁻¹ | kon [1]: 838000 M⁻¹ s⁻¹

B6: 509-min (scFv)
scFv: EIVMTQSPSTLSASVGDRVIITCQASQNIRIWLSWYQQKPGKAPKLLIYKASTLESGVPSRFSGSGSGAEFTLTISSLQPDDFATYYCQNNAHYSTNGGTFGQGTKLTVLGGGGGSGGGGSGGGGSGGGGSEVQLVESGGGLVQPGGSLRLSCAASGFSLSSYYMCWVRQAPGKGLEWVSCLDYVGDTDYASWAKGRFTISRDNSKNTLYLQMNSLRAEDTAVYYCAKTDDSRGWGLNIWGQGTLVTVSS
notes: NH2-VL-linker-VH-COOH; Min graft on FW1.4; also called 854
Rel. activity hVEGR1 comp. ELISA (EC50Luc [nM]/EC50test [nM]) [2]: 2.9 ratio
